According to the domain aggregation screens of Martell et al. (2025):

Experiment: soluble fraction after stress (log2 fold change); higher = more stays soluble; pooled small domains, quantitative proteomics
Details: stress: 75 degC
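Note: 20 min heating vs room temperature control held 20 min.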

Sequence	soluble fraction (log2)
HMNNGTDGLTTRLRRAILAGQYTFKERLPSERQLAEHFNTSRGTVRKVLQRLTTMNLVEQRAGSGTYVRYG	-0.302
HMNNIGSKIKSAKILNNLDDNQLSEITGIDKLQLRSIQDGQVNPTKMELEIISKALKLPTNYFTK	-0.115
HMNNIIYLIANKLDVGKRLDQFITIRTEFSRQRVINLIEDGYVKLNNKIINLKKYKIKGDEKIEITIPEIR	-1.32
HMNNKVAVKSGYYFEIFNKEEIPTTLAKTKQKVKINNIQYDLYQGMSLDDERKIDDMFGDRMGYSIDDY	-1.07
HMNNKVAVKSGYYFELFDKDEIPATLEKMKQKVKIDNIKYDLYQGTSLEDERKIDTMFGEKMGYSIDDYI	-0.0968
HMNNLVTRREVEILGWIKEGKTTSDIAGILSLSPFTVKNHVQNILKKLGARSRSHAVAQAINLGLLH	-1.4
HMNNPISMQKLRQVIRLYGQGKGTKSINSMLGVSRNTIKKYLQVYHSSGINYESFLAMSDKELSAVFLV	-0.509
HMNNQVTFSKFLNEVEDGRVVEVNIQGNNITGVLSDGSKFKTFSPNYPNLVEKLSEKGVSINASPL	0.0934
HMNNTIKFSVDENNSGKRLDVYLTENINHLTRSFLKKLIEKEQVKLNKKVLTSPATKVKTKDQITINIIE	0.0625
HMNNWYESSIKSLVEEYFREHGFSVVFDSSEFWDVFIEKYHKQIPSSQIALFDQVAAEARSYAFNKK	-0.0798
HMNPETLTNGSVVKMSKANLSDELIIDMINNSPARFDLSSGALRSLEGEGVSKAVIESMKRATSG	0.283
HMNPETLTNSSVIKMSKANLSDELITDMILNSPVKFDLSAGAIKTLESEGVTPAVLESMKNAASK	0.131
HMNPFTHEEINLMSIYNAAGTREGLIAALTEMWGYLDAEETELRELADSALAKLRGITDAEYAALELE	-1.19
HMNPGAYQVKAGEGLIGLSRRYNVPVDVLASVNNLNTTSSLRVGQTITIPTAAQVNRITQQAQ	0.216
HMNPGHAERGKEIVEVFLRNNGELSMREIAEKSNITITQARRRVNKLLDQGIVEATAPVQSRNRKYRIK	0.186
HMNPIEAQIEELKNKDQKTAYQALKHLLAISETRAEVSYYFDRFVALLQDPQSYVRTRGLLLIGA	0.584
HMNPLLSAYLAEVERGLQGLTAGRRRLVLRELEAHLLDEAEARGLLTEEDMRALLMEKEPPERLAQEIAQ	-0.253
HMNPMLEPAGEIRLSDGVLLRWQSERLPGDDTVRGPGSLYELGLYRVKVRVSAPQQGVRESSVELAGWRQV	-0.0501
HMNPMRYLVVPSQETETWKEYLVSKEWLERKYRIETEGDNRAIPLSNLFPKIVPIELSNLEIIEKEAFS	-0.694

Sequence	soluble fraction (log2)
HMNPNEVQIPDLVNKTEDEAEQILKDLKLKLVVKSEEYNENIEKGKIISQDPPYQENYTIKEHSEISIVIS	0.335
HMNPSRPASKEELLGLFEHLERALDAVTFFRPAEKKPVVVQTLRAMLTKASFTEQDIRTMRGVIAALEN	-1.59
HMNPYQDSILLWKSFDTPLTNEDFMGLSKEELRIARNEIYAAYGRIFTSQDLIDYFNSKPWYQGTTPA	-0.313
HMNQDQDLSRIKGIGPEMVDRLHAQGVETLEQIAAMQMEQLKKLDQQISGNGKAVREQWAEQAKQLLTT	0.099
HMNQEFRMPNAIKGVELSEENKQQLTQGEKVFLEGMTSAKGSLFDAYVYIDQEKKTLAFDFPEK	0.0813
HMNQKTQMTKQILAESLKKLMLHHSFEKITIKDITDAAGFIRPTFYNHFKDKYDLVEWIFTEEI	-0.287
HMNQKVRQLLSQAQAEMERKNYKQAIKLLDQALAIEPHSGELHFMKGYAWMSMGEFEKALESLYEARNYA	-1.4
HMNQPRQRKVIFELIDERNALERVLMHFAHLEKQVEKIDERKYQVTLYYDKEDETEILIRVLSFG	-2.01
HMNQTEKSKITHNELLKAAHSLFIEQGFNHTTITDIVTRAGYSTGIFYKHYKTKTDILVELWTNYIE	-2.27
HMNQWQLLSEDGAILGTRVLYHPHETEQPFTRSLSGVKIPAHVQSVTIRAGDLVHGFGGREIQMQLPPIV	-0.0313
HMNREENIQIGRDLLERELRKQGMDLQENLRQEVLLDGAKKLGFNNTDDLLAAIGDLKVTPAMFIGKIA	0.0484
HMNREMLVHAIGQLKEKYASALELKYWHGFTEREIAAFLNISEKAANSRLVRGRVMLRKLLE	0.0264
HMNREYELTAEESGQRLDKYLAGEMTDLSRSRIKELVQAGEILVNGKKSKVSYKVQKDDLIQVIVLPLE	-0.402
HMNRITEFVVPEGTKKIRADKLLAESFPDHSRSDFHRAFDASLVRLEGQPISKNRKISQGDVLVFEMPEI	0.505
HMNRPQDLGEPYDGQFREHPEAWAFYAAQSPSYRRSASWWVLGAKQEVTRQRRLAALIDASAQGTRIPALT	-1.8
HMNRREFQFSEGSSNKFWSIELRDQSFIVHYGKIGTNGQAQEKTFATADAAKKEHDKLIAEKTKKGYVEVQ	-0.34
HMNRTKYYDFEGHPAKVVRLTLPVYLNKIGDEVVVYDSQKFAREASPISESQYNRMVAEIFQP	-0.233
HMNSEAVQNVIDKISALPDDITAKAKSQIEEARAAYEALSDSEKARVTNYSTLVAAEKKLASVVKD	0.558
HMNSEERVLDTASKWLVKLDEGLDESEAQVLKVWLATPLHRDTFLEMVALWDKMSVLNELADIV	-1.65
